The source of these data is US8290713 (LONZA BIOLOGICS, dated 2012).

The target of this assay is α-synuclein (UniProt P37840 1-140). Description: cell-based or functional assay.

Non-standard residues stand in square brackets, D forms with d.
Also: test concentration or dose not given here.

B1: ZP-0215 (peptide)
peptide: H-[dQ][dY][dS][dV][dL][dI]-NH2
SMILES: CC[C@@H](C)[C@@H](NC(=O)[C@@H](CC(C)C)NC(=O)[C@H](NC(=O)[C@@H](CO)NC(=O)[C@@H](Cc1ccc(O)cc1)NC(=O)[C@H](N)CCC(N)=O)C(C)C)C(N)=O
As for B1, the “% decrease in ThT fluorescence” value was 27.6%, the “% decrease in rate of aggregation” value is 17.5% and the “% increase in Lag phase” value is 3.1%.

B2: ZP-0207 (peptide)
peptide: Ac-[dQ][dP][dS][dV][dL][dI]-NH2
SMILES: CC[C@@H](C)[C@@H](NC(=O)[C@@H](CC(C)C)NC(=O)[C@H](NC(=O)[C@@H](CO)NC(=O)[C@H]1CCCN1C(=O)[C@@H](CCC(N)=O)NC(C)=O)C(C)C)C(N)=O
With B2, the “% decrease in ThT fluorescence” value was 5.5%, the “% decrease in rate of aggregation” value is 3.6% and the “% increase in Lag phase” value was 29.7%.

B3: ZP-0205 (peptide)
peptide: Ac-[dQ][dY][dS][dP][dL][dI]-NH2
SMILES: CC[C@@H](C)[C@@H](NC(=O)[C@@H](CC(C)C)NC(=O)[C@H]1CCCN1C(=O)[C@@H](CO)NC(=O)[C@@H](Cc1ccc(O)cc1)NC(=O)[C@@H](CCC(N)=O)NC(C)=O)C(N)=O
As for B3, the “% decrease in ThT fluorescence” value stood at 16.6%, the “% decrease in rate of aggregation” value is -11.9% and the “% increase in Lag phase” value amounted to 30.6%.

B4: ZP-0193 (peptide)
peptide: Ac-[dH][dH][dT][dE][dV][dY]-NH2
SMILES: CC(=O)N[C@H](Cc1c[nH]cn1)C(=O)N[C@H](Cc1c[nH]cn1)C(=O)N[C@@H](C(=O)N[C@H](CCC(=O)O)C(=O)N[C@@H](C(=O)N[C@H](Cc1ccc(O)cc1)C(N)=O)C(C)C)[C@H](C)O
For the molecule B4, the “% decrease in ThT fluorescence” value came out at 8.7%, the “% decrease in rate of aggregation” value is -15.8% and the “% increase in Lag phase” value amounted to 31.4%.

B5: ZP-0228 (peptide)
peptide: H-[dP][dY][dS][dV][dL][dI]-NH2
SMILES: CC[C@@H](C)[C@@H](NC(=O)[C@@H](CC(C)C)NC(=O)[C@H](NC(=O)[C@@H](CO)NC(=O)[C@@H](Cc1ccc(O)cc1)NC(=O)[C@H]1CCCN1)C(C)C)C(N)=O
As for B5, the “% decrease in ThT fluorescence” value turned out to be 40.8%, the “% decrease in rate of aggregation” value is 46.2% and the “% increase in Lag phase” value came out at 38.2%.

B6: ZP-0194 (peptide)
peptide: Ac-[dH][dH][dT][dT][dV][dY]-NH2
SMILES: CC(=O)N[C@H](Cc1c[nH]cn1)C(=O)N[C@H](Cc1c[nH]cn1)C(=O)N[C@@H](C(=O)N[C@@H](C(=O)N[C@@H](C(=O)N[C@H](Cc1ccc(O)cc1)C(N)=O)C(C)C)[C@H](C)O)[C@H](C)O
Consider B6, for which the “% decrease in ThT fluorescence” value turned out to be 11.6%, the “% decrease in rate of aggregation” value amounted to 7.7% and the “% increase in Lag phase” value is 38.8%.

B7: ZP-0212 (peptide)
peptide: Ac-[dR][dY][dS][dV][dL][dI]-NH2
SMILES: CC[C@@H](C)[C@@H](NC(=O)[C@@H](CC(C)C)NC(=O)[C@H](NC(=O)[C@@H](CO)NC(=O)[C@@H](Cc1ccc(O)cc1)NC(=O)[C@@H](CCCNC(=N)N)NC(C)=O)C(C)C)C(N)=O
B7: the “% decrease in ThT fluorescence” value was determined as 51.1%, the “% decrease in rate of aggregation” value is 44.9% and the “% increase in Lag phase” value was -14.4%.

B8: ZP-0221 (peptide)
peptide: H-[dQ][dY][dT][dV][dL][dI]-NH2
SMILES: CC[C@@H](C)[C@@H](NC(=O)[C@@H](CC(C)C)NC(=O)[C@H](NC(=O)[C@H](NC(=O)[C@@H](Cc1ccc(O)cc1)NC(=O)[C@H](N)CCC(N)=O)[C@H](C)O)C(C)C)C(N)=O
For B8, the “% decrease in ThT fluorescence” value stood at 24.7%, the “% decrease in rate of aggregation” value was 22.8% and the “% increase in Lag phase” value was -22.4%.

B9: ZP-0222 (peptide)
peptide: H-[dQ][dY][dK][dV][dL][dI]-NH2
SMILES: CC[C@@H](C)[C@@H](NC(=O)[C@@H](CC(C)C)NC(=O)[C@H](NC(=O)[C@@H](CCCCN)NC(=O)[C@@H](Cc1ccc(O)cc1)NC(=O)[C@H](N)CCC(N)=O)C(C)C)C(N)=O
With B9, the “% decrease in ThT fluorescence” value is 42.3%, the “% decrease in rate of aggregation” value amounted to 34.3% and the “% increase in Lag phase” value came out at 7.7%.

B10: ZP-0213 (peptide)
peptide: Ac-[dE][dK][dY][dS][dV][dL][dI]-NH2
SMILES: CC[C@@H](C)[C@@H](NC(=O)[C@@H](CC(C)C)NC(=O)[C@H](NC(=O)[C@@H](CO)NC(=O)[C@@H](Cc1ccc(O)cc1)NC(=O)[C@@H](CCCCN)NC(=O)[C@@H](CCC(=O)O)NC(C)=O)C(C)C)C(N)=O
Regarding B10, the “% decrease in ThT fluorescence” value turned out to be 25.6%, the “% decrease in rate of aggregation” value amounted to 12.9% and the “% increase in Lag phase” value worked out at 29.4%.

B11: ZP-0206 (peptide)
peptide: Ac-[dQ][dY][dP][dV][dL][dI]-NH2
SMILES: CC[C@@H](C)[C@@H](NC(=O)[C@@H](CC(C)C)NC(=O)[C@H](NC(=O)[C@H]1CCCN1C(=O)[C@@H](Cc1ccc(O)cc1)NC(=O)[C@@H](CCC(N)=O)NC(C)=O)C(C)C)C(N)=O
As to B11, the “% decrease in ThT fluorescence” value is 3.3%, the “% decrease in rate of aggregation” value was 8.4% and the “% increase in Lag phase” value amounted to 25.9%.

B12: ZP-0204 (peptide)
peptide: Ac-[dQ][dY][dS][dV][dP][dI]-NH2
SMILES: CC[C@@H](C)[C@@H](NC(=O)[C@H]1CCCN1C(=O)[C@H](NC(=O)[C@@H](CO)NC(=O)[C@@H](Cc1ccc(O)cc1)NC(=O)[C@@H](CCC(N)=O)NC(C)=O)C(C)C)C(N)=O
B12: the “% decrease in ThT fluorescence” value came out at 1.4%, the “% decrease in rate of aggregation” value was -5.6% and the “% increase in Lag phase” value is 23.6%.

B13: ZP-0202 (peptide)
peptide: Ac-[dQ][dY][dK][dV][dL][dI]-NH2
SMILES: CC[C@@H](C)[C@@H](NC(=O)[C@@H](CC(C)C)NC(=O)[C@H](NC(=O)[C@@H](CCCCN)NC(=O)[C@@H](Cc1ccc(O)cc1)NC(=O)[C@@H](CCC(N)=O)NC(C)=O)C(C)C)C(N)=O
For B13, the “% decrease in ThT fluorescence” value worked out at 53.5%, the “% decrease in rate of aggregation” value stood at 54.5% and the “% increase in Lag phase” value was -28.8%.

B14: ZP-0214 (peptide)
peptide: Ac-[dD][dR][dY][dS][dV][dL][dI]-NH2
SMILES: CC[C@@H](C)[C@@H](NC(=O)[C@@H](CC(C)C)NC(=O)[C@H](NC(=O)[C@@H](CO)NC(=O)[C@@H](Cc1ccc(O)cc1)NC(=O)[C@@H](CCCNC(=N)N)NC(=O)[C@@H](CC(=O)O)NC(C)=O)C(C)C)C(N)=O
B14: the “% decrease in ThT fluorescence” value was found to be 20.4%, the “% decrease in rate of aggregation” value worked out at 4.8% and the “% increase in Lag phase” value is -12.6%.

B15: ZP-0229 (peptide)
peptide: H-[dQ][dY][dS][dV][dL][dV]-NH2
SMILES: CC(C)C[C@@H](NC(=O)[C@H](NC(=O)[C@@H](CO)NC(=O)[C@@H](Cc1ccc(O)cc1)NC(=O)[C@H](N)CCC(N)=O)C(C)C)C(=O)N[C@@H](C(N)=O)C(C)C
For the molecule B15, the “% decrease in ThT fluorescence” value amounted to 17.8%, the “% decrease in rate of aggregation” value is 24.3% and the “% increase in Lag phase” value was determined as 33.5%.

B16: ZP-0160 (peptide)
peptide: Ac-[dH][dH][dV][dL][dV][dA]-NH2
SMILES: CC(=O)N[C@H](Cc1c[nH]cn1)C(=O)N[C@H](Cc1c[nH]cn1)C(=O)N[C@@H](C(=O)N[C@H](CC(C)C)C(=O)N[C@@H](C(=O)N[C@H](C)C(N)=O)C(C)C)C(C)C
Take B16: the “% decrease in ThT fluorescence” value stood at 8.8%, the “% decrease in rate of aggregation” value is 10.5% and the “% increase in Lag phase” value came out at 36.5%.
